Broadly, the Kd is the free concentration of one partner at which half of the binding sites on the other are occupied at equilibrium, for simple one-to-one binding.

Assay [1] has as its target Ang2-BD_(C1.70), yeast-displayed (human) (UniProt O15123). The assay is described as follows: flow cytometry on cells; Ang2-BD displayed on yeast, soluble Tie2-Fc in 20 mM Hepes pH 7.0, 150 mM NaCl, 1% BSA, 1 h at room temperature; detected with anti-human Fc FITC; binding MFI divided by expression MFI (c-Myc) and normalized to Ang2-BDWT.
Assay [2] concerns the target Ang2-BD_(C2.36), yeast-displayed (human) (UniProt O15123). The assay is described as above.
Assay [3] deals with T1, rhTie2 extracellular domain (human, UniProt Q02763 23-748).
T1 construct: receptor tyrosine kinase Tie2, recombinant human, extracellular domain; also called immobilized Tie2; recombinant soluble Tie2; source: bought: Sino Biological Inc
The assay can be described thus: SPR; ProteOn XPR36, rhTie2 extracellular domain amine-coupled to a GLC chip (2100 RU), Ang2-BD variants as analytes, 25°C, 20 mM Hepes pH 7.0, 150 mM NaCl, 1 mM CaCl2; steady state for Ang2-BDWT, two-state model for the variants. Particulars: both partners purified. Background: In SPR one partner is held on a chip, and binding of the other changes the refractive index at the surface.

T1 sequence (Q02763 23-748): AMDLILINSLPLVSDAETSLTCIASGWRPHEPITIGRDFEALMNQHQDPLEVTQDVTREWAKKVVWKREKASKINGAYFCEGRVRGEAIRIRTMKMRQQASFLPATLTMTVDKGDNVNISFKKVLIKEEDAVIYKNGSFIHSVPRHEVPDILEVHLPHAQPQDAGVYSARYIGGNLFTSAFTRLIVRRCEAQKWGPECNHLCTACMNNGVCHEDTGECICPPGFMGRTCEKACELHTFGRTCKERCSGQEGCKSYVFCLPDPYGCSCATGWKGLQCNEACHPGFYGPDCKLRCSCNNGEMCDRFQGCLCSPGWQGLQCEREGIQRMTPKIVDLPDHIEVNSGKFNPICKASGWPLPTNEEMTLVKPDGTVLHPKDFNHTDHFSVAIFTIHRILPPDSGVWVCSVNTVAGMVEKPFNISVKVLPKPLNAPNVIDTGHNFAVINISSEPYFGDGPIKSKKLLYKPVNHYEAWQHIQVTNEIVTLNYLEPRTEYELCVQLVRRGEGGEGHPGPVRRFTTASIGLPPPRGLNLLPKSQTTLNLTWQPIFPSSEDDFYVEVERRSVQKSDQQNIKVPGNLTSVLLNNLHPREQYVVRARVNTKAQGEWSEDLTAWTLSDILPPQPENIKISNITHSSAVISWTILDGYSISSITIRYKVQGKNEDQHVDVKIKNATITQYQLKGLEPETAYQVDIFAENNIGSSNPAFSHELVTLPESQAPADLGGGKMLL

For “Recombinant human Tie2 (Ala23-Lys745) Fc fusion, soluble Tie2-Fc (from UniProt Q02763 23-745)”, in assay [1], the fold increase in affinity relative to Ang2-BDWT was found to be 2.5 fold. In addition, the fold increase in binding affinity as compared to Ang2-BDWT in assay [2] turned out to be 17 fold.

B1: Ang2-BDWT, soluble (domain or fragment, human, UniProt O15123 281-496, looked up)
chain: FRDCAEVFKSGHTTNGIYTLTFPNSTEEIKAYCDMEAGGGGWTIIQRREDGSVDFQRTWKEYKVGFGNPSGEYWLGNEFVSQLTNQQRYVLKIHLKDWEGNEAYSLYEHFYLSSEELNYRIHLKGLTGTAGKISSISQPGNDFSTKDGDNDKCICKCSQMLTGGWWFDACGPSNLNGMYYPQRQNTNKFNGIKWYYWKGSGYSLKATTMMIRPADF
notes: N-linked carbohydrates removed with Endo Hf; also called wild-type Ang2-BD; parental Ang2-BD; source: Pichia pastoris GS115, purified from culture supernatant (HisTrap, Endo Hf treatment, Superdex 75); not shown: FLAG, N-terminal, kept
In assay [3], B1 gave a Kd of 434 nM.
